Here are results for 102 substances from the supplement of paper PMC12042874.

± gives the uncertainty stated by the source.

A short description of the data set: amyloid nucleation score (Sup35N fusion, yeast selection) (log enrichment); library NNK1; higher = more nucleation; inactive = no reads after selection. In short, it runs like this: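 Output and input plasmid inserts were sequenced by Illumina after psi-negative yeast carrying Sup35N fused to peptides of 20 random codons had been induced 24 hours with 100 μM copper sulfate and grown 7 days at 30°C on medium lacking adenine and uracil. The nucleation score is the DiMSum log enrichment of output over input reads, centred on the mode score of non-aggregating sequences. Sequences with under 100 input reads were excluded.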
The substance MCGRSGTFSAILRDREGLNI yielded an amyloid nucleation score of 0.219 ± 0.65.

For YWAIVW, the amyloid nucleation score is -0.128 ± 0.39.

For the substance VTSSFWFFNDADSRQ, the amyloid nucleation score came out at 3.24 ± 0.1.

Regarding VNYISHTQMKTR, the amyloid nucleation score was 0.913 ± 0.41.

FLILLGLVEDGTLYAVRTVG: the amyloid nucleation score was -0.849 ± 0.8.

In turn, FNRNRIGGEIVMSNNYMYHS showed an amyloid nucleation score of 1.58 ± 0.33.

In the case of QTVGGRFSSFY, the amyloid nucleation score result was “inactive”.

As to LRLNDSSLRIPEAA, the amyloid nucleation score was -0.107 ± 0.44.

WLVVFVDSVYARRWCELKFL showed an amyloid nucleation score of 0.39 ± 0.36.

Regarding VLGSVIGFLWNP, the amyloid nucleation score was found to be 2.23 ± 0.088.

The substance SPWFAHITPRVIMEERH gave an amyloid nucleation score of -1.18 ± 0.79.

As to LQLTYPPLVVPSSRWCLLLS, the amyloid nucleation score is -0.099 ± 0.97.

On to LFLLSTSESCFQCATPANDN, for which the amyloid nucleation score is -0.222 ± 0.59.

In turn, VNLFLVMKFK returned an amyloid nucleation score of 6.676 ± 0.043.

In turn, WSGFQCSQDEWNLSMTIVRA came in with an amyloid nucleation score of -0.097 ± 0.78.

On to WSNADEFGPD, for which the amyloid nucleation score was -0.256 ± 0.51.

RMHRTDWASIHKDGRPQRRF registered an amyloid nucleation score of 1.23 ± 0.76.

PKCLNESMVGRRWLAIMGRV displayed an amyloid nucleation score of 0.328 ± 0.72.

For the substance IDWKLKLMFMCFESKSLVNW, the amyloid nucleation score is -0.655 ± 0.32.

For the substance SMMKRVTAVVNVFYRFDIKA, the amyloid nucleation score entry is “inactive”.

For STRGHNMTEINVWMVHNILT, the amyloid nucleation score was -0.116 ± 1.4.

Turning to TFKSTLFSYFPGPQEHARGR, the amyloid nucleation score was determined as 1.93 ± 0.25.

The substance FNRENGRNFALVVCLLDRFG had an amyloid nucleation score of 1.41 ± 0.17.

YVSAGRCKYDDLPTRV came in with an amyloid nucleation score of 0.133 ± 0.67.

MRSKREMSFMTHEILVCNDA returned an amyloid nucleation score of 0.509 ± 0.31.

For the substance RHVDRLVLWHEDSVAPGETN, the amyloid nucleation score is 0.394 ± 0.49.

Consider LYGGNSRFRLSSYRYGMFWN, for which the amyloid nucleation score entry was “inactive”.

Consider RIFYFPSLRRKGDYNWRMVV, for which the amyloid nucleation score was 0.27 ± 0.39.

HHALHAKAERLTPPMPPCKM gave an amyloid nucleation score of 0.714 ± 0.84.

The substance SCMRSKWKNTWLKYRYVNCI yielded an amyloid nucleation score of -0.493 ± 0.62.

For YMRGGQDFYYVQDIVVFLLL, the amyloid nucleation score turned out to be 4.24 ± 0.094.

On to RSFPSTFLLVLLQDSRC, for which the amyloid nucleation score turned out to be 2.17 ± 0.24.

Take DWGKSSPLLKVLLMQSRLPC: the amyloid nucleation score was -0.073 ± 0.45.

GGNKPCG showed an amyloid nucleation score of 2.11 ± 0.57.

For the substance SWLCHRTSVLVPVVSISRKL, the amyloid nucleation score came to 1.15 ± 0.7.

TAVDLWYGGVGGLALNGVVS: the amyloid nucleation score turned out to be 0.594 ± 0.62.

The substance QVCRARMHMEVGAMGTFHAS gave an amyloid nucleation score of 0.521 ± 0.41.

For RLCQVDEAASTESRKAKWGR, the amyloid nucleation score came to 0.075 ± 0.35.

INTFARRAVVSSLSWSLACH: the amyloid nucleation score was determined as 0.317 ± 0.64.

For the substance RCMFAYLRVMDCNGGNVYPV, the amyloid nucleation score stood at 0.409 ± 0.21.

EMCFGLFGKLVWCETWLVKA had an amyloid nucleation score of 0.344 ± 0.32.

On to SMSPTDICYWCLYHSAYIRD, for which the amyloid nucleation score worked out at 1.55 ± 0.3.

In turn, VSVMFYPFVFHWYGCLLTSA gave an amyloid nucleation score of 2.96 ± 0.12.

Turning to NACFRYKAKMDRMSTRGANS, the amyloid nucleation score came to 1.88 ± 0.39.

Substance FLLMVWDIYECVGNTLKRCA gave an amyloid nucleation score of 0.027 ± 0.42.

For the substance LPIVGFSCFEFIMIERMRLV, the amyloid nucleation score entry was “inactive”.

Take IVTCESGCRLKSSRDKCPSR: the amyloid nucleation score worked out at 0.284 ± 0.59.

The substance IFAQKGYTSRFSILM showed an amyloid nucleation score of -0.565 ± 0.58.

In turn, KANPDHIPRRLDYRGSGPSR yielded an amyloid nucleation score of -0.482 ± 0.94.

YSGWEEITVFFSDARV returned an amyloid nucleation score of -0.115 ± 1.3.

The substance VGVSAVSTNSSVSKIFGTSW gave an amyloid nucleation score of 0.746 ± 0.85.

In the case of VRAELVTVGCLRRATYYRPK, the amyloid nucleation score was -0.319 ± 1.2.

YSNLIDGS yielded an amyloid nucleation score of 7.378 ± 0.047.

On to SIFWSRTVLLMN, for which the amyloid nucleation score stood at 5.97 ± 0.1.

As to PAHKLILFPPCCVGVWYSER, the amyloid nucleation score entry was “inactive”.

In turn, MSALTGQKPLVMVGGLCAVG displayed an amyloid nucleation score of 0.449 ± 0.55.

The substance DSSLRDKYVTKNVFIFSMSG had an amyloid nucleation score of 4.71 ± 0.063.

In the case of GVCWLKIRALPDSYWLVFL, the amyloid nucleation score was -0.776 ± 0.74.

As to VIRFSGVLCMIDL, the amyloid nucleation score worked out at 5.09 ± 0.071.

The substance GVSVSYLDGGMAWPNEGGRK gave an amyloid nucleation score of 0.19 ± 0.62.

RVTYNSETTRCFCEVFAPYR registered an amyloid nucleation score of -0.875 ± 2.4.

For the substance DVSVT, the amyloid nucleation score result is “inactive”.

CTPALLGLAIIQQGNTWLGI had an amyloid nucleation score of 2.63 ± 0.079.

As to YTEIMGL, the amyloid nucleation score is -0.046 ± 0.31.

Regarding PQALGSTHLQTRRDQHVIF, the amyloid nucleation score is -0.046 ± 0.53.

FVEMVYFNECCIPKFDIEYV gave an amyloid nucleation score of 1.6 ± 0.17.

YSMLCLKYL: the amyloid nucleation score result is “inactive”.

In the case of LRLENAQLSFTFEYWILYG, the amyloid nucleation score was -0.475 ± 1.7.

Consider MDLHTACVYSKVGMTLDQPS, for which the amyloid nucleation score was 0.343 ± 0.39.

Regarding FLICDGSDRQMF, the amyloid nucleation score was found to be 0.315 ± 0.23.

ISLYVSNYRAYDKSPLGEDW yielded an amyloid nucleation score of 0.398 ± 0.74.

As for AAVCRSILVF, the amyloid nucleation score was 0.674 ± 0.88.

Substance NKKNSSLNHSL had an amyloid nucleation score of -0.077 ± 0.43.

As to VVDMTVGFENARCGMREVWT, the amyloid nucleation score is -0.328 ± 1.3.

RSYEDGALVVVGMRFGDRLR came in with an amyloid nucleation score of 0.336 ± 0.87.

On to LSEWNPSLVCMERTLHCS, for which the amyloid nucleation score was found to be 0.493 ± 0.25.

VCMLVHLVTFAPNS came in with an amyloid nucleation score of 2.61 ± 0.26.

Substance WNGLYRFCVVRAQGSFDET showed an amyloid nucleation score of -0.111 ± 0.32.

For the substance WYSVKESLGSPSLPSQFLST, the amyloid nucleation score entry was “inactive”.

The substance LGRGSAVSSPWVIIRIVNML yielded an amyloid nucleation score of 0.784 ± 0.72.

With DYNWSCFH, the amyloid nucleation score is 1.28 ± 0.69.

GPKKTLMFPSFISDSCARKG had an amyloid nucleation score of 0.535 ± 1.2.

For the substance YASVVGYLPGCTNINAMKNR, the amyloid nucleation score result was “inactive”.

As for TSRFSFCGS, the amyloid nucleation score stood at 1.85 ± 0.14.

RNYCDPGAFGVWGVTGHHRV: the amyloid nucleation score was -0.816 ± 0.92.

In turn, CVYGIGVYR registered an amyloid nucleation score of -0.84 ± 0.95.

Substance FGLRYSMCHHGRGHLKWLYT returned an amyloid nucleation score of 1.35 ± 0.65.

In turn, YSLNFYAMPRSSI gave an amyloid nucleation score of 3.76 ± 0.1.

In turn, DYGKSCRIALYGYYDRWCTG registered an amyloid nucleation score of 0.797 ± 0.48.

Consider LDLINRMGNVGMLIMDCYKI, for which the amyloid nucleation score stood at 0.159 ± 0.43.

With VLKCRERRFRIHGHWTRRGP, the amyloid nucleation score is -0.63 ± 0.47.

Take RLASRCLLALGMEWLIPMER: the amyloid nucleation score was 2.6 ± 0.11.

In turn, HFLTDMNFKRARDSDLSSVW yielded an amyloid nucleation score of 0.489 ± 0.29.

Regarding IYVYVLSMMCPSEDR, the amyloid nucleation score is 0.201 ± 0.84.

Take WSKHLAYIVYDVQ: the amyloid nucleation score was -0.325 ± 1.

Consider WLSMANHLIISCGSCRFRAF, for which the amyloid nucleation score worked out at 0.973 ± 0.44.

IPNSRLLNI showed an amyloid nucleation score of 0.996 ± 0.57.

Consider LICLGRPTSNTELGMNDINF, for which the amyloid nucleation score was -0.349 ± 0.84.

With RDVECQLVSMHKGMWKLVEE, the amyloid nucleation score is -0.041 ± 0.28.

For LIGQLIFRPVNGARKIPV, the amyloid nucleation score was -0.31 ± 0.29.

In the case of RTPFFKRICK, the amyloid nucleation score was -0.303 ± 0.69.

As for WVINFVGKTCDTIDP, the amyloid nucleation score entry was “inactive”.
